To fix the notation:
B1: His-Cdk1 1–85 (domain or fragment)
chain: not shown
notes: Cdk1, human, residues 1-85, deletion mutant made by PCR; source: E. coli BL21, purified (Ni2+-charged agarose); not shown: His-tag, N-terminal, kept
B2: GST-Survivin 1-70 (domain or fragment, UniProt O15392 1-70, looked up)
chain: MGAPTLPPAWQPFLKDHRISTFKNWPFLEGCACTPERMAEAGFIHCPTENEPDLAQCFFCFKELEGWEPD
notes: Survivin residues 1-70, deletion mutant made by PCR; also called Survivin N-terminus (first 70 amino acids); source: E. coli BL21, purified (glutathione agarose); not shown: GST, N-terminal, kept
B3: His-Cdk1 36–85 (domain or fragment)
chain: not shown
notes: Cdk1, human, residues 36-85, deletion mutant made by PCR; source: E. coli BL21, purified (Ni2+-charged agarose); not shown: His-tag, N-terminal, kept
B4: SUR A55-D70 peptide (peptide)
peptide: AQCFFCFKELEGWEPD
modifications: not fully specified (N-terminus); cysteine pairing not given here
notes: Survivin residues Ala55 through Asp70; the methods describe only one form of the peptide (biotin and tat at the N-terminus); also called Survivin peptide; Survivin A55-D70; source: synthetic peptide (f-BOC chemistry, HPLC purified; Peptron or W. M. Keck Biotechnology Research Center, Yale)

Where no end group is shown, it is not given here.

What all share (conditions): both partners purified
In one assay the target is T1, GST-Survivin (UniProt O15392 1-142).
T1 construct: Survivin; the printed peptide 55-70 fits human Survivin; also called recombinant Survivin; pGST-Survivin product; source: E. coli BL21, purified (glutathione agarose); not shown: GST, N-terminal, kept
The assay can be described thus: pull-down; GST pull-down: His-tagged recombinant proteins mixed with GST, GST-Survivin or GST-Survivin mutants; Western blotting. A general note: Immunoblotting shows a protein as a band on a membrane.

In the next assay the target is T2, His-Cdk1 (human, UniProt P06493 1-297).
T2 construct: Cdk1, human, full-length cDNA BC014563 subcloned into pRSETa; also called recombinant His-Cdk1; Cdk1 protein kinase; source: E. coli BL21, purified (Ni2+-charged agarose); not shown: His-tag, N-terminal, kept
T2 sequence (P06493 whole entry): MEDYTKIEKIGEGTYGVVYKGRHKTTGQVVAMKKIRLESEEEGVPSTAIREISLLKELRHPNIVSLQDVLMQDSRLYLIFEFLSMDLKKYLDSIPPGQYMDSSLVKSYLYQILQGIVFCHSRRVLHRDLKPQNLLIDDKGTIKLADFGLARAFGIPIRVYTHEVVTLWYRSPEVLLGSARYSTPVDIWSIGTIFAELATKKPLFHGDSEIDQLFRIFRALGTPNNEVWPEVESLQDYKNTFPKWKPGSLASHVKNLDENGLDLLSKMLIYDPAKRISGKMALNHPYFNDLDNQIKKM
The description is as above.

For the assay “SUR A55-D70 peptide”, the target named is B4. The assay can be described thus: pull-down; streptavidin-binding assay: 50 ug biotinylated peptide bound to streptavidin agarose, mixed with recombinant His-Cdk1 fragments; Western blotting.
The assay “His-Cdk1 1–85” addresses B1. The assay is described as above.
Another assay addresses T3, His-Cdk1 1–183 (human, UniProt P06493 1-183).
T3 construct: source: E. coli BL21, purified (Ni2+-charged agarose); not shown: His-tag, N-terminal, kept
The assay is described as above.

A further assay concerns the target T4, His-Cdk1 9–85 (human, UniProt P06493 9-85).
T4 construct: Cdk1, human, residues 9-85, deletion mutant made by PCR; source: E. coli BL21, purified (Ni2+-charged agarose); not shown: His-tag, N-terminal, kept
The description is as above.

T3 sequence (P06493 1-183): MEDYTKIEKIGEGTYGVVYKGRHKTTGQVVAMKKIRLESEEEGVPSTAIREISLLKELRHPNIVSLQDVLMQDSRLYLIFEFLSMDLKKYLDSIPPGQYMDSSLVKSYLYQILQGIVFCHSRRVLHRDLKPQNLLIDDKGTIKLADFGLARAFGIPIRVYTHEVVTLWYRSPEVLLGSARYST
Chain of His-Cdk1 1–85 (P06493 1-85): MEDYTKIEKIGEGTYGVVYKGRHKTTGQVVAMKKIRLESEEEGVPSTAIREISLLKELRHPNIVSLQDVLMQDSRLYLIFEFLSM
T4 sequence (P06493 9-85): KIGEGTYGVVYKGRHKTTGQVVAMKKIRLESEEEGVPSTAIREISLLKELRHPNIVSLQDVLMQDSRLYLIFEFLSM

Turning to B1, in the assay with GST-Survivin, the binding result is “binds”.

For the molecule B2, in the assay with His-Cdk1, the binding result is recorded as “binds”.

B3: in the assay with SUR A55-D70 peptide, the binding result is “binds”.

On to B4, for which the binding result with His-Cdk1 1–85, with His-Cdk1 1–183 and with His-Cdk1 9–85 was “binds” in each case.

These data come from article PMC10925418, “Survivin Mediates Mitotic Onset in HeLa Cells Through Activation of the Cdk1-Cdc25B Axis” (Research Square, 2024).
